According to patent publication US20050287664A1 (published 2005):

Molecular target: T1, full length rat SD (Shen-Dan) protein expressed from pSDf in HEK293T cells (rat, UniProt Q2VWP9 24-1193)
T1 construct: Full-length rat SD amplified from E10.5 rat cDNA and ligated into pEF1/Myc-His (pSDf); also called SD-expressing cells
T1 sequence: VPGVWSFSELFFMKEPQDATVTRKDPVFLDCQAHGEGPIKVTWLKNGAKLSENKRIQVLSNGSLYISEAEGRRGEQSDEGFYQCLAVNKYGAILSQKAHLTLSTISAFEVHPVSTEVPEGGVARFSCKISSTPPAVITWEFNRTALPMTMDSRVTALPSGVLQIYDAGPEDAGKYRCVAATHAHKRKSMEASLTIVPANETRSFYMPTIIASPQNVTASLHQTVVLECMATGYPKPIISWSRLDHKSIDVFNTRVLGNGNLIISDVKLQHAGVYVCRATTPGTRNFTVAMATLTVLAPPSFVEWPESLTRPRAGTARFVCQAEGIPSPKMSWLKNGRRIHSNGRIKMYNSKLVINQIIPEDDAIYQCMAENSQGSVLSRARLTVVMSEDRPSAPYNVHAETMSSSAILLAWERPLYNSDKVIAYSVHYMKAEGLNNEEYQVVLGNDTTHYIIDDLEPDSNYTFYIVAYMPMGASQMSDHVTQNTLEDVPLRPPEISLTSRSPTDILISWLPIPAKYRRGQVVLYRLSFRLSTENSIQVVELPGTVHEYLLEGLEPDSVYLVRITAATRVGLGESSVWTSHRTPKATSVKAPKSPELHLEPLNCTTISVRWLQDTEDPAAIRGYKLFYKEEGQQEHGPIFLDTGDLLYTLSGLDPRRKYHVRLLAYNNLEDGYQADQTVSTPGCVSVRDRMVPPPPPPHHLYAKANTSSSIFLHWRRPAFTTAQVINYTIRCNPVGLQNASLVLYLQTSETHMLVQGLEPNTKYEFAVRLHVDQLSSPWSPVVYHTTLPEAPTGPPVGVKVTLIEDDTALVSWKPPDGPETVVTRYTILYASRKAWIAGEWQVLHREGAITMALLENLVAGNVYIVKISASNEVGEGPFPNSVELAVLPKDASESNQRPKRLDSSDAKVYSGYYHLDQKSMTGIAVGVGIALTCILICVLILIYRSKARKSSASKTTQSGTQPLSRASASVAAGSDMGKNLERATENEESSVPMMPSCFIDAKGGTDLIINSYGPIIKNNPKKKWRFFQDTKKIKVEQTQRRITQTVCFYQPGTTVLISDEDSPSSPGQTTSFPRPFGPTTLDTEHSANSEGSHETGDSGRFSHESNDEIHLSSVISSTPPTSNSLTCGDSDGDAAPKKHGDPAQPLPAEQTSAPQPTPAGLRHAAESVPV
Assay: in situ binding assay, conditioned medium on pSDf-transfected HEK293T cells, immunofluorescence (anti-myc 9E10)
Description: HEDJ/ERdj3 binds to the SD extracellular domain. a, Schematic representation of eight HEDJ/ERdj3 clones identified by yeast two-hybrid screening and their interaction with the SD extracellular domain, shown as activity in an X-gal assay. b, Various sd deletion mutants were examined for their ability to interact with C-terminal HEDJ/ERdj3. c, HEK293T cells were transiently transfected with pHEDJ or a control vector. Three days after transfection, conditioned medium (CM) and total cell lysate (TCL) were subjected to Western blotting to detect HEDJ/ERdj3 using anti-myc antibody. d, Quantification of HEDJ/ERdj3 binding to SD-expressing cells. HEK293T cells were transiently transfected with pSDf or control vector. SD expression was detected by W4 antiserum. Binding of HEDJ/ERdj3 on the cells was detected by anti-myc mAb. Cell nuclei were visualized by DAPI. […] Data were normalized relative to fluorescence intensity of the cells transfected with pSDf in the presence of control CM. Results are shown as means±s.e.m., from a total of 50 cells. (*, p<0.001; by student's t-test).
HEK293T cells were transfected with pSDf using FuGENE 6 (Roche). […] The fluorescence signal was quantified using ImageJ software (NIH, Bethesda, Md., USA).

binding result: binds
B1: C-terminal His-myc-tagged HEDJ/ERdj3 protein secreted from pHEDJ-transfected HEK293T cells (ligand, mouse, UniProt Q99KV1 23-358, looked up)
chain: GRDFYKILGVPRSASIKDIKKAYRKLALQLHPDRNPDDPQAQEKFQDLGAAYEVLSDSEKRKQYDTYGEEGLKDGHQSSHGDIFSHFFGDFGFMFGGTPRQQDRNIPRGSDIIVDLEVTLEEVYAGNFVEVVRNKPVARQAPGKRKCNCRQEMRTTQLGPGRFQMTQEVVCDECPNVKLVNEERTLEVEIEPGVRDGMEYPFIGEGEPHVDGEPGDLRFRIKVVKHRIFERRGDDLYTNVTVSLVEALVGFEMDITHLDGHKVHISRDKITRPGAKLWKKGEGLPNFDNNNIKGSLIITFDVDFPKEQLTEEAKEGIKQLLKQGPVQKVYNGLQGY
notes: mature; also called secreted HEDJ/ERdj3; not shown: C-terminal His-myc tag from pEF1/Myc-His
